Tests used:
cancer cells = conditions: because of enzymatic activity against RNA; cited from earlier work
HPV type 11 = test: quantitative reverse transcriptase PCR (QRT-PCR) antiviral assay against HPV type 11 in A-431 cells; format: cell-based, type 11 human papillomavirus; conditions: HPV-11 in A-431 cells
Experimental: To evaluate the activity of the tested RNases against type 11 HPV infections, the following quantitative PCR assay was used:
Solutions of the tested RNases were prepared in cell culture medium without use of dimethyl sulfoxide (“DMSO”). DMSO is unnecessary because the tested RNases are water-soluble.
HPV is an DNA virus. Antiviral activity against HPV type 11 was evaluated using a quantitative reverse transcriptase PCR (QRT-PCR) assay. Initially, on Day 1, 1 million A-431 cells were placed in 6-well dishes in Dulbecco's Modified Eagle Medium (“DMEM”) supplemented with 10% fetal bovine serum (“FBS”). The cells were then incubated for two days at 37° C.
After this incubation period, on day 2 replicate aliquots of HPV-11 were added to each non-control well, representing a multiplicity of infection (“MOI”) of 150 particles per cell in DMEM containing 2.5% FBS.
One day later, i.e. on day 3, DMEM with 10% FBS was added to each cell culture well.
One day later, i.e. on day 4, the tested compounds were added to the non-control cell culture wells. Control wells received media alone, or the vehicle used to dilute the tested compounds. Cidofovir diluted to 300 ug/ml was used as a positive control. […]
Finally, one day later, on […], QRT-PCR was carried out to quantitate the proportion of viral E1^E4 transcripts and a cellular reference RNA for the TATA-binding protein (“TBP”). […]

[1] = cited from earlier work

Val11, Asn20, Arg103—Ranpirnase ['805 variant]
cytotoxicity to cancer cells (cancer cells): cytotoxic to certain cancer cells
activity against type 11 HPV (as seen in FIG. 1; SI = CC50/EC50) (HPV type 11): extraordinarily active

B1: ranpirnase (protein, UniProt P22069 1-104, looked up)
Protein P-30: QDWLTFQKKHITNTRDVDCDNIMSTNLFHCKDKNTFIYSRPEPVKAICKGIIASKNVLTTSEFYLSDCNVTSRPCKYKLKKSTNKFCVTCENQAPVHFVGVGSC
notes: An RNase disclosed and claimed in U.S. Pat. No. 5,559,212; registered trademark ONCONASE
cytotoxicity to cancer cells (cancer cells): cytotoxic to cancer cells
toxicity and tolerability in humans [1]: non-toxic and well-tolerated
activity against type 11 HPV (as seen in FIG. 1; SI = CC50/EC50) (HPV type 11): extraordinarily active
